This is an account of results in paper PMC4981287.

The target of assay [1] is HiLyteFluor488-labeled amyloid-β(1-40) oligomers formed from the disaggregation of fibrils (UniProt P05067). The experiment in a line: confocal two-color coincidence detection.
Assay [2] deals with HiLyteFluor488-labeled amyloid-β(1-40) fibrils (UniProt P05067). Description: confocal two-color coincidence detection.
Assay [3] shares this target.

HiLyteFluor488-labeled amyloid-β(1-40) oligomers formed from the disaggregation of fibrils, sequence (P05067 672-711): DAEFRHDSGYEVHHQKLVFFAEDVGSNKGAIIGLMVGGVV
HiLyteFluor488-labeled amyloid-β(1-40) fibrils, sequence (P05067 672-711): as above

The term koff denotes a measure of how fast the partners let go of each other. By Kd is commonly meant the free concentration of one partner at which half of the binding sites on the other are occupied at equilibrium, for simple one-to-one binding. Lower therefore signals tighter binding. As for “AlexaFluor647-labeled αB-crystallin (from UniProt P02511 1-175) (natural protein)”, in assay [1], the half-time for dissociation is 17 h and the stoichiometry N (αB-crystallin molecule per Aβ monomer) was 1. The substance further had a koff in assay [2] of 4.4e-05 s⁻¹. For the same substance, the Kd in assay [3] came to 1200 nM.
